Results on three molecules are retold here after paper PMC6162332, “A unique intracellular tyrosine in neuroligin-1 regulates AMPA receptor recruitment during synapse differentiation and potentiation” (Nature Communications, 2018).

The target of this assay is T1, PSD-95-mCherry (rat, UniProt P31016 1-724).
T1 construct: PSD-95, rat; the rat PSD-95 gene subcloned in frame with an N-terminal mCherry into pET-24a(+) between EcoRI and XhoI; the methods give no limits; source: E. coli BL21-CodonPlus (DE3)-RIPL, purified (Ni-NTA, dialysed into PBS with 0.01% Tween-20); not shown: mCherry, N-terminal, kept
T1 sequence (P31016 whole entry): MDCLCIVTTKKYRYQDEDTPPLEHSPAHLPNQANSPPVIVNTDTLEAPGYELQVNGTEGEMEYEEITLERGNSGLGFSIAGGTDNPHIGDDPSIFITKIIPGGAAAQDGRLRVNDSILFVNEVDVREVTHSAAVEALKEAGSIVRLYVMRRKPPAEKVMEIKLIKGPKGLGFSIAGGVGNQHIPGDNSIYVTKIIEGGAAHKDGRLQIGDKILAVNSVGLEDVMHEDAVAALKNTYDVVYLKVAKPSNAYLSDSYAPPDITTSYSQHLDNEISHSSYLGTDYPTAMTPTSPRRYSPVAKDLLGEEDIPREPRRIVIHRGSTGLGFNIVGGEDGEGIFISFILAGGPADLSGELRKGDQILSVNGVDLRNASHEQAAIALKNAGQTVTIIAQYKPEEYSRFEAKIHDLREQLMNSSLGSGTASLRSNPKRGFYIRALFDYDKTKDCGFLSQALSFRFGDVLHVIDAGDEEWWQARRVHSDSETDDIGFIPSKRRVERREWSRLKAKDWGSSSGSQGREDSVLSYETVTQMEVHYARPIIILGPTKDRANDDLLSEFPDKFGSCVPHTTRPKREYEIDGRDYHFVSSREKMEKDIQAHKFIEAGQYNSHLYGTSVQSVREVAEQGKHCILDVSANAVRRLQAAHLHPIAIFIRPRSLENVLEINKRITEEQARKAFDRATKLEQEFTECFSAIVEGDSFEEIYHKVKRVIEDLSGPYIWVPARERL
The experiment in a line: pull-down; GST or GST-Nlg1 proteins (0.64 nmol/200 µl) on glutathione magnetic beads in PBS pH 7.4, 0.01% BSA, 0.01% Tween-20; incubated 20 min at RT with purified PSD-95-mCherry (0.01 nmol/100 µL); eluted with glutathione; anti-PSD-95 immunoblot. To be noted: both partners purified. On the technique in general: A western blot detects proteins with antibodies after separation by electrophoresis.

B1: GST-Nlg1-WT (GST fused to the intracellular domain of neuroligin-1) (domain or fragment, mouse, UniProt Q99K10 719-843, looked up)
chain: YKKDKRRHDVHRRCSPQRTTTNDLTHAPEEEIMSLQMKHTDLDHECESIHPHEVVLRTACPPDYTLAMRRSPDDIPLMTPNTITMIPNTIPGIQPLHTFNTFTGGQNNTLPHPHPHPHSHSTTRV
notes: neuroligin-1 (Nlg1), mouse, cytoplasmic tail amplified from HA-Nlg1 (with splice inserts A and B) and inserted in pGex-4T1 at XhoI/NotI; source: E. coli BL21 (DE3)-RIPL, purified (Glutathione Sepharose 4 Fast Flow, dialysed against PBS)
In the case of B1, the binding result was “binds”.

B2: GST-Nlg1-Y782F (domain or fragment, mouse, UniProt Q99K10 719-843, looked up)
chain: YKKDKRRHDVHRRCSPQRTTTNDLTHAPEEEIMSLQMKHTDLDHECESIHPHEVVLRTACPPDFTLAMRRSPDDIPLMTPNTITMIPNTIPGIQPLHTFNTFTGGQNNTLPHPHPHPHSHSTTRV
notes: neuroligin-1 (Nlg1), mouse, cytoplasmic tail amplified from HA-Nlg1-Y782F and inserted in pGex-4T1 at XhoI/NotI; Same limits as m1 (same primers); source: E. coli BL21 (DE3)-RIPL, purified (Glutathione Sepharose 4 Fast Flow, dialysed against PBS)
Regarding B2, the binding result is recorded as “binds”.

B3: GST-Nlg1-Y782A (domain or fragment, mouse, UniProt Q99K10 719-843, looked up)
chain: YKKDKRRHDVHRRCSPQRTTTNDLTHAPEEEIMSLQMKHTDLDHECESIHPHEVVLRTACPPDATLAMRRSPDDIPLMTPNTITMIPNTIPGIQPLHTFNTFTGGQNNTLPHPHPHPHSHSTTRV
notes: neuroligin-1 (Nlg1), mouse, cytoplasmic tail amplified from HA-Nlg1-Y782A and inserted in pGex-4T1 at XhoI/NotI; Same limits as m1 (same primers); source: E. coli BL21 (DE3)-RIPL, purified (Glutathione Sepharose 4 Fast Flow, dialysed against PBS)
Turning to B3, the binding result is “binds”.
